Test results: patent US20250152717A1

Molecular target: KRAS-G12V8-16 peptide (…) presented by HLA-A11 (human)
Assay: cell-based or functional assay

percent of TCR 11N4A-transduced T cells responding (CD137) to peptide: > 80%
B1: TCR 11N4A (TCR)
TCR alpha: QQKNDDQQVKQNSPSLSVQEGRISILNCDYTNSMFDYFLWYKKYPAEGPTFLISISSIKDKNEDGRFTVFLNKSAKHLSLHIVPSQPGDSAVYFCAASGVSGNTPLVFGKGTRLSVIANIQNPDPAVYQLRDSKSSDKSVCLFTDFDSQTNVSQSKDSDVYITDKCVLDMRSMDFKSNSAVAWSNKSDFACANAFNNSIIPEDTFFPSPESSCDVKLVEKSFETDTNLNFQNLSVIGFRILLLKVAGFNLLMTLRLWSS
TCR beta: GVTQTPRYLIKTRGQQVTLSCSPISGHRSVSWYQQTPGQGLQFLFEYFSETQRNKGNFPGRFSGRQFSNSRSEMNVSTLELGDSALYLCASSVGTVEQYFGPGTRLTVTEDLKNVFPPEVAVFEPSEAEISHTQKATLVCLATGFYPDHVELSWWVNGKEVHSGVCTDPQPLKEQPALNDSRYCLSSRLRVSATFWQNPRNHFRCQVQFYGLSENDEWTQDRAKPVTQIVSAEAWGRADCGFTSESYQQGVLSATILYEILLGKATLYAVLVSALVLMAMVKRKDSRG
